For orientation: Kd means the constant that tells how readily two partners part at equilibrium. Usually koff stands for the rate constant with which the complex falls apart. The term kon denotes the rate constant with which the complex forms.

The target of this assay is T1, CTNI quality control recombinant protein (PK2-CTNI-1, 170120, produced by the applicant) (human, UniProt P19429 2-210, limits assumed).
T1 construct: also called cardiac troponin I
The assay is described as follows: AMC sensor kinetics, antibody captured, cTnI analyte. Here is the method:
Using the AMC sensor, the purified antibody was diluted with PBST to 10 μg/ml, and the CTNI quality control recombinant protein (PK2-CTNI-1, 170120, produced by the applicant) was serially diluted with PBST to 400 nmol/ml, 200 nmol/ml, 100 nmol/ml, 50 nmol/ml, 25 nmol/ml, 12.5 nmol/ml, 6.25 nmol/ml, and 0 nmol/ml.

T1 sequence (P19429 2-210 limits assumed): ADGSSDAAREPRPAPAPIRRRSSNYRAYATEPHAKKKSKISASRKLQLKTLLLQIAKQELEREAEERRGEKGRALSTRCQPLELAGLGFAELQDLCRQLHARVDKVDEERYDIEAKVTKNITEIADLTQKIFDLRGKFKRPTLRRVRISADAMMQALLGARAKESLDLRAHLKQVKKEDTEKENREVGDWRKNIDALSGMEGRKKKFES

B1: Mutation 1-1 (antibody, V domains shown)
VH: EVQLQQSGAELVKPGASVKLSCTASGFNLKDYYMHWMKQRTEQGLDWIGRIDPEDAETKYAPEFQGKATITADTSSNTAYLQLSTLTSEDTAVYYCARYYSSYLPFVYWGQGTLVTASA
VL: DVVMTQTPLSLSVSLGDQASISCRSSQSILYSNRHTYLHWYLQKPGQSPKLLIFQLSNRFSGVPDRFSGSGSGTDFTLKINRVEAEDLGVYFCSQSTHLPYTFGSGTKLEIKR
notes: built as for Mutation 1
Turning to B1, the Kd was 0.865 nM, the koff was 0.000311 s⁻¹ and the association rate constant (kon) was found to be 359000 M⁻¹ s⁻¹.

B2: Mutation 1-10 (antibody, V domains shown)
VH: EVQLQQSGAELVKPGASVKLSCTASGFNIKDYFMHWMKQRTEQGLDWIGRIDPEDAETRYAPEFQGKATITADTSSNTAYLQLSTLTSEDTAVYYCARYYSSYLPFVYWGQGTLVTASA
VL: DVVMTQTPLSLSVSLGDQASISCRSSQSIIYSNRHTYLHWYLQKPGQSPKLLIFQLSNRFSGVPDRFSGSGSGTDFTLKINRVEAEDLGVYFCSQSTHLPYTFGSGTKLEIKR
notes: built as for Mutation 1
For the molecule B2, the Kd was found to be 0.922 nM, the koff is 0.000413 s⁻¹ and the kon turned out to be 448000 M⁻¹ s⁻¹.

B3: Mutation 1-3 (antibody, V domains shown)
VH: EVQLQQSGAELVKPGASVKLSCTASGFNIKDYYMHWMKQRTEQGLDWIGRIDPEDGETKYAPEFQGKATITADTSSNTAYLQLSTLTSEDTAVYYCARYYSSYLPFVYWGQGTLVTASA
VL: DVVMTQTPLSLSVSLGDQASISCRSSQSLLYSNRHTYLHWYLQKPGQSPKLLIFQLSNRFSGVPDRFSGSGSGTDFTLKINRVEAEDLGVYFCSQSTHIPYTFGSGTKLEIKR
notes: built as for Mutation 1
Take B3: the equilibrium dissociation constant (Kd) came out at 0.676 nM, the koff was found to be 0.000122 s⁻¹ and the association rate constant (kon) came out at 181000 M⁻¹ s⁻¹.

B4: Mutation 1-15 (antibody, V domains shown)
VH: EVQLQQSGAELVKPGASVKLSCTASGFNIKDYYMHWMKQRTEQGLDWIGRIDPEDGETRYAPEFQGKATITADTSSNTAYLQLSTLTSEDTAVYYCARYYSSYVPFVYWGQGTLVTASA
VL: DVVMTQTPLSLSVSLGDQASISCRSSQSIIYSNRHTYLHWYLQKPGQSPKLLIFQVSNRFSGVPDRFSGSGSGTDFTLKINRVEAEDLGVYFCSQSTHIPYTFGSGTKLEIKR
notes: built as for Mutation 1
Consider B4, for which the Kd is 0.917 nM, the off-rate (koff) was determined as 0.000245 s⁻¹ and the on-rate (kon) worked out at 267000 M⁻¹ s⁻¹.

B5: Mutation 1-20 (antibody, V domains shown)
VH: EVQLQQSGAELVKPGASVKLSCTASGFNLKDYFMHWMKQRTEQGLDWIGRIDPEDGETKYAPEFQGKATITADTSSNTAYLQLSTLTSEDTAVYYCARYYSSYVPFVYWGQGTLVTASA
VL: DVVMTQTPLSLSVSLGDQASISCRSSQSLIYSNRHTYLHWYLQKPGQSPKLLIFQVSNRFSGVPDRFSGSGSGTDFTLKINRVEAEDLGVYFCSQSTHIPFTFGSGTKLEIKR
notes: built as for Mutation 1
In the case of B5, the dissociation constant (Kd) turned out to be 0.945 nM, the off-rate constant (koff) was 0.000158 s⁻¹ and the kon is 167000 M⁻¹ s⁻¹.

B6: Mutation 1-5 (antibody, V domains shown)
VH: EVQLQQSGAELVKPGASVKLSCTASGFNLKDYYMHWMKQRTEQGLDWIGRIDPEDGETRYAPEFQGKATITADTSSNTAYLQLSTLTSEDTAVYYCARYYSSYIPFVYWGQGTLVTASA
VL: DVVMTQTPLSLSVSLGDQASISCRSSQSIIYSNRHTYLHWYLQKPGQSPKLLIFQISNRFSGVPDRFSGSGSGTDFTLKINRVEAEDLGVYFCSQSTHIPFTFGSGTKLEIKR
notes: built as for Mutation 1
Regarding B6, the Kd was 0.623 nM, the koff was found to be 0.0001 s⁻¹ and the association rate constant (kon) was determined as 161000 M⁻¹ s⁻¹.

B7: Mutation 1-9 (antibody, V domains shown)
VH: EVQLQQSGAELVKPGASVKLSCTASGFNLKDYYMHWMKQRTEQGLDWIGRIDPEDGETKYAPEFQGKATITADTSSNTAYLQLSTLTSEDTAVYYCARYYSSYIPFVYWGQGTLVTASA
VL: DVVMTQTPLSLSVSLGDQASISCRSSQSLLYSNRHTYLHWYLQKPGQSPKLLIFQISNRFSGVPDRFSGSGSGTDFTLKINRVEAEDLGVYFCSQSTHIPYTFGSGTKLEIKR
notes: built as for Mutation 1
As for B7, the Kd was 0.866 nM, the koff is 9.18e-05 s⁻¹ and the association rate constant (kon) was determined as 106000 M⁻¹ s⁻¹.

B8: Mutation 1-8 (antibody, V domains shown)
VH: EVQLQQSGAELVKPGASVKLSCTASGFNLKDYFMHWMKQRTEQGLDWIGRIDPEDGETRYAPEFQGKATITADTSSNTAYLQLSTLTSEDTAVYYCARYYSSYLPFVYWGQGTLVTASA
VL: DVVMTQTPLSLSVSLGDQASISCRSSQSLIYSNRHTYLHWYLQKPGQSPKLLIFQLSNRFSGVPDRFSGSGSGTDFTLKINRVEAEDLGVYFCSQSTHLPFTFGSGTKLEIKR
notes: built as for Mutation 1
As for B8, the Kd stood at 0.303 nM, the off-rate (koff) is 2.58e-05 s⁻¹ and the kon was 85100 M⁻¹ s⁻¹.

B9: Mutation 1-12 (antibody, V domains shown)
VH: EVQLQQSGAELVKPGASVKLSCTASGFNLKDYFMHWMKQRTEQGLDWIGRIDPEDGETKYAPEFQGKATITADTSSNTAYLQLSTLTSEDTAVYYCARYYSSYLPFVYWGQGTLVTASA
VL: DVVMTQTPLSLSVSLGDQASISCRSSQSILYSNRHTYLHWYLQKPGQSPKLLIFQLSNRFSGVPDRFSGSGSGTDFTLKINRVEAEDLGVYFCSQSTHLPYTFGSGTKLEIKR
notes: built as for Mutation 1
As for B9, the Kd turned out to be 0.834 nM, the koff was 0.000258 s⁻¹ and the kon turned out to be 309000 M⁻¹ s⁻¹.

B10: Mutation 1-22 (antibody, V domains shown)
VH: EVQLQQSGAELVKPGASVKLSCTASGFNIKDYFMHWMKQRTEQGLDWIGRIDPEDGETRYAPEFQGKATITADTSSNTAYLQLSTLTSEDTAVYYCARYYSSYVPFVYWGQGTLVTASA
VL: DVVMTQTPLSLSVSLGDQASISCRSSQSIIYSNRHTYLHWYLQKPGQSPKLLIFQVSNRFSGVPDRFSGSGSGTDFTLKINRVEAEDLGVYFCSQSTHLPYTFGSGTKLEIKR
notes: built as for Mutation 1
B10: the Kd amounted to 0.725 nM, the off-rate constant (koff) came out at 0.000215 s⁻¹ and the on-rate (kon) worked out at 297000 M⁻¹ s⁻¹.

B11: Mutation 1-7 (antibody, V domains shown)
VH: EVQLQQSGAELVKPGASVKLSCTASGFNIKDYYMHWMKQRTEQGLDWIGRIDPEDAETRYAPEFQGKATITADTSSNTAYLQLSTLTSEDTAVYYCARYYSSYIPFVYWGQGTLVTASA
VL: DVVMTQTPLSLSVSLGDQASISCRSSQSLIYSNRHTYLHWYLQKPGQSPKLLIFQISNRFSGVPDRFSGSGSGTDFTLKINRVEAEDLGVYFCSQSTHLPYTFGSGTKLEIKR
notes: built as for Mutation 1
As to B11, the Kd amounted to 0.804 nM, the off-rate (koff) came out at 0.00056 s⁻¹ and the kon is 697000 M⁻¹ s⁻¹.

B12: Mutation 1-2 (antibody, V domains shown)
VH: EVQLQQSGAELVKPGASVKLSCTASGFNIKDYFMHWMKQRTEQGLDWIGRIDPEDGETRYAPEFQGKATITADTSSNTAYLQLSTLTSEDTAVYYCARYYSSYVPFVYWGQGTLVTASA
VL: DVVMTQTPLSLSVSLGDQASISCRSSQSLIYSNRHTYLHWYLQKPGQSPKLLIFQVSNRFSGVPDRFSGSGSGTDFTLKINRVEAEDLGVYFCSQSTHIPFTFGSGTKLEIKR
notes: built as for Mutation 1
Take B12: the Kd is 0.623 nM, the koff came out at 0.000268 s⁻¹ and the kon came to 430000 M⁻¹ s⁻¹.

B13: Mutation 1-17 (antibody, V domains shown)
VH: EVQLQQSGAELVKPGASVKLSCTASGFNLKDYYMHWMKQRTEQGLDWIGRIDPEDAETRYAPEFQGKATITADTSSNTAYLQLSTLTSEDTAVYYCARYYSSYLPFVYWGQGTLVTASA
VL: DVVMTQTPLSLSVSLGDQASISCRSSQSIIYSNRHTYLHWYLQKPGQSPKLLIFQLSNRFSGVPDRFSGSGSGTDFTLKINRVEAEDLGVYFCSQSTHIPYTFGSGTKLEIKR
notes: built as for Mutation 1
Take B13: the dissociation constant Kd worked out at 0.722 nM, the koff was 0.000565 s⁻¹ and the association rate constant (kon) amounted to 782000 M⁻¹ s⁻¹.

B14: Mutation 1-16 (antibody, V domains shown)
VH: EVQLQQSGAELVKPGASVKLSCTASGFNLKDYFMHWMKQRTEQGLDWIGRIDPEDAETRYAPEFQGKATITADTSSNTAYLQLSTLTSEDTAVYYCARYYSSYIPFVYWGQGTLVTASA
VL: DVVMTQTPLSLSVSLGDQASISCRSSQSLLYSNRHTYLHWYLQKPGQSPKLLIFQISNRFSGVPDRFSGSGSGTDFTLKINRVEAEDLGVYFCSQSTHLPYTFGSGTKLEIKR
notes: built as for Mutation 1
As to B14, the dissociation constant Kd worked out at 0.662 nM, the off-rate (koff) was determined as 0.000101 s⁻¹ and the association rate constant (kon) worked out at 152000 M⁻¹ s⁻¹.

B15: Mutation 1-21 (antibody, V domains shown)
VH: EVQLQQSGAELVKPGASVKLSCTASGFNLKDYYMHWMKQRTEQGLDWIGRIDPEDAETKYAPEFQGKATITADTSSNTAYLQLSTLTSEDTAVYYCARYYSSYLPFVYWGQGTLVTASA
VL: DVVMTQTPLSLSVSLGDQASISCRSSQSLLYSNRHTYLHWYLQKPGQSPKLLIFQLSNRFSGVPDRFSGSGSGTDFTLKINRVEAEDLGVYFCSQSTHLPFTFGSGTKLEIKR
notes: built as for Mutation 1
Regarding B15, the dissociation constant Kd turned out to be 0.676 nM, the koff worked out at 0.000477 s⁻¹ and the on-rate constant (kon) is 705000 M⁻¹ s⁻¹.

B16: Mutation 1-13 (antibody, V domains shown)
VH: EVQLQQSGAELVKPGASVKLSCTASGFNLKDYYMHWMKQRTEQGLDWIGRIDPEDAETRYAPEFQGKATITADTSSNTAYLQLSTLTSEDTAVYYCARYYSSYVPFVYWGQGTLVTASA
VL: DVVMTQTPLSLSVSLGDQASISCRSSQSLIYSNRHTYLHWYLQKPGQSPKLLIFQVSNRFSGVPDRFSGSGSGTDFTLKINRVEAEDLGVYFCSQSTHLPFTFGSGTKLEIKR
notes: built as for Mutation 1
Consider B16, for which the Kd worked out at 0.806 nM, the koff was determined as 0.000251 s⁻¹ and the kon was determined as 311000 M⁻¹ s⁻¹.

B17: Mutation 1-25 (antibody, V domains shown)
VH: EVQLQQSGAELVKPGASVKLSCTASGFNLKDYYMHWMKQRTEQGLDWIGRIDPEDGETRYAPEFQGKATITADTSSNTAYLQLSTLTSEDTAVYYCARYYSSYIPFVYWGQGTLVTASA
VL: DVVMTQTPLSLSVSLGDQASISCRSSQSIIYSNRHTYLHWYLQKPGQSPKLLIFQISNRFSGVPDRFSGSGSGTDFTLKINRVEAEDLGVYFCSQSTHLPYTFGSGTKLEIKR
notes: built as for Mutation 1
In the case of B17, the Kd was determined as 0.97 nM, the off-rate (koff) was 0.000659 s⁻¹ and the association rate constant (kon) is 679000 M⁻¹ s⁻¹.

B18: Mutation 1-19 (antibody, V domains shown)
VH: EVQLQQSGAELVKPGASVKLSCTASGFNIKDYYMHWMKQRTEQGLDWIGRIDPEDGETRYAPEFQGKATITADTSSNTAYLQLSTLTSEDTAVYYCARYYSSYLPFVYWGQGTLVTASA
VL: DVVMTQTPLSLSVSLGDQASISCRSSQSLIYSNRHTYLHWYLQKPGQSPKLLIFQLSNRFSGVPDRFSGSGSGTDFTLKINRVEAEDLGVYFCSQSTHIPFTFGSGTKLEIKR
notes: built as for Mutation 1
For the molecule B18, the dissociation constant (Kd) came out at 0.487 nM, the dissociation rate constant (koff) worked out at 0.000191 s⁻¹ and the association rate constant (kon) was determined as 393000 M⁻¹ s⁻¹.

These data come from patent US20210340231A1 (FAPON BIOTECH, published 2021).
